Test results: patent US20250136696A1 (HARBOUR BIOMED SHANGHAI, published 2025)

T1: human B7-H7 on the cell surface (human, UniProt Q9UM44 23-414)
T1 construct: whole, on cells; also called hB7-H7; hu B7-H7
T1 sequence (looked up): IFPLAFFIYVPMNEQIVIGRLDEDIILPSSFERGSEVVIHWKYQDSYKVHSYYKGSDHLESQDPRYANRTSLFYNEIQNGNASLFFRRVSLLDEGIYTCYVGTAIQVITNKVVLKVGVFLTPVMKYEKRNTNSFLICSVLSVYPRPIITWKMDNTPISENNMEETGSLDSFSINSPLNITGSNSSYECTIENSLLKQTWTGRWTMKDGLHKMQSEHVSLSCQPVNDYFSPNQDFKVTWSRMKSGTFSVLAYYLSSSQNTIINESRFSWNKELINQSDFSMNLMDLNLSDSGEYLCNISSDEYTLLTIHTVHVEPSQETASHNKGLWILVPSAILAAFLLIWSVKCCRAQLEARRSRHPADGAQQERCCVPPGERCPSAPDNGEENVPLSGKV


How the values were obtained:
[1] = molecular target: T1, human B7-H7 on the cell surface; experiment: flow cytometry on LS180 cells, expression supernatant diluted 1:1, 1:10, 1:100
[2] = molecular target: T1, human B7-H7 on the cell surface; experiment: flow cytometry, LS180 cells
Procedure: This example was intended to study the in vitro activity of H2L2 monoclonal antibodies against human B7-H7 in binding to human/cynomolgus monkey B7-H7. Since homologous molecules of B7-H7 were not present in mice, the detection was not performed. […] The cells were adjusted to a cell density of 1×10⁶ cells/mL, respectively. The cells were seeded in a 96-well V-bottom plate (Corning, #3894) at 100 μL/well, and the antibody to be tested at 2× final concentration with 3-fold concentration gradient dilution was then added at 100 μL/well. The cells were incubated at 4° C. for 2 hours in the dark. After the incubation, the cells were rinsed twice by adding pre-chilled PBS containing 2% BSA at 100 μl/well, and centrifuged at 500 g at 4° C. for 5 minutes, and the supernatant was discarded. […] The cells were washed twice by adding pre-chilled PBS containing 2% BSA at 100 μL/well, and centrifuged at 500 g at 4° C. for 5 minutes, and the supernatant was discarded. Finally, the cells were resuspended in pre-chilled PBS containing 2% BSA at 200 μL/well, and the fluorescence signal values were read using an ACEA Novocyte3000 flow cytometer.

binding result [1]	EC50 [2] [nM]	Maximum MFI [2] [MFI]	Binder
binds			PR004493 (antibody, human IgG1, kappa, L234A L235A, V domains shown, Variant of PR003259, L:N92Q; Human IgG1 LALA; expressed supernatant only) VH: QVQLVESGGGVVQPGRSLRLSCAASGFTFSNYGMHWVRQVPGKGLEWVAVIWYDGSEKDYADSVKGRFTISRDNSKNTLYLQMNSLRVEDTAVYYCAKDLISGIYYVDHWGQGTLVTVSS VL: DIQMTQSPSSLSASVGDRVTITCRASQGISNYLAWYQQKPGKVPKLLIYAASTLQSGVPSRFSGSGSGTDFTLTISSLQPEDVATYYCQKYQSAPFTFGPGTKVDIKR
binds			PR004490 (antibody, human IgG1, kappa, L234A L235A, V domains shown, Variant of PR003259, H:G55A; Human IgG1 LALA; expressed supernatant only) VH: QVQLVESGGGVVQPGRSLRLSCAASGFTFSNYGMHWVRQVPGKGLEWVAVIWYDASEKDYADSVKGRFTISRDNSKNTLYLQMNSLRVEDTAVYYCAKDLISGIYYVDHWGQGTLVTVSS VL: DIQMTQSPSSLSASVGDRVTITCRASQGISNYLAWYQQKPGKVPKLLIYAASTLQSGVPSRFSGSGSGTDFTLTISSLQPEDVATYYCQKYNSAPFTFGPGTKVDIKR
binds			PR004489 (antibody, human IgG1, kappa, L234A L235A, V domains shown, Variant of PR003259, H:D54E; L:S93A; Human IgG1 LALA; expressed supernatant only) VH: QVQLVESGGGVVQPGRSLRLSCAASGFTFSNYGMHWVRQVPGKGLEWVAVIWYEGSEKDYADSVKGRFTISRDNSKNTLYLQMNSLRVEDTAVYYCAKDLISGIYYVDHWGQGTLVTVSS VL: DIQMTQSPSSLSASVGDRVTITCRASQGISNYLAWYQQKPGKVPKLLIYAASTLQSGVPSRFSGSGSGTDFTLTISSLQPEDVATYYCQKYNAAPFTFGPGTKVDIKR
binds			PR004494 (antibody, human IgG1, kappa, L234A L235A, V domains shown, Variant of PR003259, L:S93A; Human IgG1 LALA; expressed supernatant only) VH: QVQLVESGGGVVQPGRSLRLSCAASGFTFSNYGMHWVRQVPGKGLEWVAVIWYDGSEKDYADSVKGRFTISRDNSKNTLYLQMNSLRVEDTAVYYCAKDLISGIYYVDHWGQGTLVTVSS VL: DIQMTQSPSSLSASVGDRVTITCRASQGISNYLAWYQQKPGKVPKLLIYAASTLQSGVPSRFSGSGSGTDFTLTISSLQPEDVATYYCQKYNAAPFTFGPGTKVDIKR
binds			PR004480 (antibody, human IgG1, kappa, L234A L235A, V domains shown, Variant of PR003249, H:D54E; L:N92Q; Human IgG1 LALA; expressed supernatant only) VH: QVQLVESGGGVVQPGRSLRLSCAASGFTFSDYGIHWVRQAPGKGLEWVAVIWYEGSDKYYADSVRGRFTISRDNSKNTLSLQMNSLRVEDTAVYYCARDRSSGAMGYFVYWGQGTLVTVSS VL: not shown
binds			PR004482 (antibody, human IgG1, kappa, L234A L235A, V domains shown, Variant of PR003249, H:G55A; Human IgG1 LALA; expressed supernatant only) VH: QVQLVESGGGVVQPGRSLRLSCAASGFTFSDYGIHWVRQAPGKGLEWVAVIWYDASDKYYADSVRGRFTISRDNSKNTLSLQMNSLRVEDTAVYYCARDRSSGAMGYFVYWGQGTLVTVSS VL: not shown
binds			PR004481 (antibody, human IgG1, kappa, L234A L235A, V domains shown, Variant of PR003249, H:D54E; L:S93A; Human IgG1 LALA; expressed supernatant only) VH: QVQLVESGGGVVQPGRSLRLSCAASGFTFSDYGIHWVRQAPGKGLEWVAVIWYEGSDKYYADSVRGRFTISRDNSKNTLSLQMNSLRVEDTAVYYCARDRSSGAMGYFVYWGQGTLVTVSS VL: not shown
binds			PR004485 (antibody, human IgG1, kappa, L234A L235A, V domains shown, Variant of PR003249, L:N92Q; Human IgG1 LALA; expressed supernatant only) VH: QVQLVESGGGVVQPGRSLRLSCAASGFTFSDYGIHWVRQAPGKGLEWVAVIWYDGSDKYYADSVRGRFTISRDNSKNTLSLQMNSLRVEDTAVYYCARDRSSGAMGYFVYWGQGTLVTVSS VL: not shown
binds			PR004486 (antibody, human IgG1, kappa, L234A L235A, V domains shown, Variant of PR003249, L:S93A; Human IgG1 LALA; expressed supernatant only) VH: QVQLVESGGGVVQPGRSLRLSCAASGFTFSDYGIHWVRQAPGKGLEWVAVIWYDGSDKYYADSVRGRFTISRDNSKNTLSLQMNSLRVEDTAVYYCARDRSSGAMGYFVYWGQGTLVTVSS VL: not shown

Second part, the binder before the results:

Binder	binding result [1]	EC50 [2] [nM]	Maximum MFI [2] [MFI]
PR004487 (antibody, human IgG1, kappa, L234A L235A, V domains shown, Variant of PR003259, H:D54E; Human IgG1 LALA; expressed supernatant only) VH: QVQLVESGGGVVQPGRSLRLSCAASGFTFSNYGMHWVRQVPGKGLEWVAVIWYEGSEKDYADSVKGRFTISRDNSKNTLYLQMNSLRVEDTAVYYCAKDLISGIYYVDHWGQGTLVTVSS VL: DIQMTQSPSSLSASVGDRVTITCRASQGISNYLAWYQQKPGKVPKLLIYAASTLQSGVPSRFSGSGSGTDFTLTISSLQPEDVATYYCQKYNSAPFTFGPGTKVDIKR	binds		
PR004488 (antibody, human IgG1, kappa, L234A L235A, V domains shown, Variant of PR003259, H:D54E; L:N92Q; Human IgG1 LALA; expressed supernatant only) VH: QVQLVESGGGVVQPGRSLRLSCAASGFTFSNYGMHWVRQVPGKGLEWVAVIWYEGSEKDYADSVKGRFTISRDNSKNTLYLQMNSLRVEDTAVYYCAKDLISGIYYVDHWGQGTLVTVSS VL: DIQMTQSPSSLSASVGDRVTITCRASQGISNYLAWYQQKPGKVPKLLIYAASTLQSGVPSRFSGSGSGTDFTLTISSLQPEDVATYYCQKYQSAPFTFGPGTKVDIKR	binds		
PR004491 (antibody, human IgG1, kappa, L234A L235A, V domains shown, Variant of PR003259, H:G55A; L:N92Q; Human IgG1 LALA) VH: QVQLVESGGGVVQPGRSLRLSCAASGFTFSNYGMHWVRQVPGKGLEWVAVIWYDASEKDYADSVKGRFTISRDNSKNTLYLQMNSLRVEDTAVYYCAKDLISGIYYVDHWGQGTLVTVSS VL: DIQMTQSPSSLSASVGDRVTITCRASQGISNYLAWYQQKPGKVPKLLIYAASTLQSGVPSRFSGSGSGTDFTLTISSLQPEDVATYYCQKYQSAPFTFGPGTKVDIKR		0.066	22800
PR004492 (antibody, human IgG1, kappa, L234A L235A, V domains shown, Variant of PR003259, H:G55A; L:S93A; Human IgG1 LALA) VH: QVQLVESGGGVVQPGRSLRLSCAASGFTFSNYGMHWVRQVPGKGLEWVAVIWYDASEKDYADSVKGRFTISRDNSKNTLYLQMNSLRVEDTAVYYCAKDLISGIYYVDHWGQGTLVTVSS VL: DIQMTQSPSSLSASVGDRVTITCRASQGISNYLAWYQQKPGKVPKLLIYAASTLQSGVPSRFSGSGSGTDFTLTISSLQPEDVATYYCQKYNAAPFTFGPGTKVDIKR		0.052	22900
PR004483 (antibody, human IgG1, kappa, L234A L235A, V domains shown, Variant of PR003249, H:G55A; L:N92Q; Human IgG1 LALA) VH: QVQLVESGGGVVQPGRSLRLSCAASGFTFSDYGIHWVRQAPGKGLEWVAVIWYDASDKYYADSVRGRFTISRDNSKNTLSLQMNSLRVEDTAVYYCARDRSSGAMGYFVYWGQGTLVTVSS VL: not shown		0.044	25100
PR004484 (antibody, human IgG1, kappa, L234A L235A, V domains shown, Variant of PR003249, H:G55A; L:S93A; Human IgG1 LALA) VH: QVQLVESGGGVVQPGRSLRLSCAASGFTFSDYGIHWVRQAPGKGLEWVAVIWYDASDKYYADSVRGRFTISRDNSKNTLSLQMNSLRVEDTAVYYCARDRSSGAMGYFVYWGQGTLVTVSS VL: not shown		0.04	24600
